Source: PMC6901440

Molecular target: Bcl-2 recombinant protein, P10415
Assay: in vitro binding of Bcl-2 recombinant protein to immunoprecipitated Flag-GSDMD, western blot with band values printed under the Bcl-2 blot
Conditions: chain shown with the change; incubated for one hour, then heavily washed; parent: 1

Sequence of Bcl-2 recombinant protein, P10415 (P10415 whole entry): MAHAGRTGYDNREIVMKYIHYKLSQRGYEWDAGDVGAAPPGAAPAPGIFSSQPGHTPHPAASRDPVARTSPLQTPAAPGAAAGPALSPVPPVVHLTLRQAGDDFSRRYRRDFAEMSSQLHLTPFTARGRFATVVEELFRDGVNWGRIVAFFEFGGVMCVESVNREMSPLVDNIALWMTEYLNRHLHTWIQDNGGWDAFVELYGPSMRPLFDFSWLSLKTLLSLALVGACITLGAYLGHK

B1: Flag-GSDMD full length, P57764 L150Q (protein)
chain: MGSAFERVVRRVVQELDHGGEFIPVTSLQSSTGFQPYCLVVRKPSSSWFWKPRYKCVNLSIKDILEPDAAEPDVQRGRSFHFYDAMDGQIQGSVELAAPGQAKIAGGAAVSDSSSTSMNVYSLSVDPNTWQTLLHERHLRQPEHKVLQQQRSRGDNVYVVTEVLQTQKEVEVTRTHKREGSGRFSLPGATCLQGEGQGHLSQKKTVTIPSGSTLAFRVAQLVIDSDLDVLLFPDKKQRTFQPPATGHKRSTSEGAWPQLPSGLSMMRCLHNFLTDGVPAEGAFTEDFQGLRAEVETISKELELLDRELCQLLLEGLEGVLRDQLALRALEEALEQGQSLGPVEPLDGPAGAVLECLVLSSGMLVPELAIPVVYLLGALTMLSETQHKLLAEALESQTLLGPLELVGSLLEQSAPWQERSTMSLPPGLLGNSWGEGAPAWVLLDECGLELGEDTPHVCWEPQAQGRMCALYASLALLSGLSQEPH
**Q.** With B1 as the binder, how does the ratio to parent read?
**A.** The ratio to parent was 0.45.
